Laboratory results reported in patent US20160068613A1.

Each substance was assayed against human neonatal Fc-receptor (FcRn) (human) (UniProt P55899) (assay: FcRn affinity chromatography).

Substance | retention time | FcRn-affinity column retention time | retention time on FcRn affinity column
anti-HER2 antibody, symmetrically modified, R255D | 41.4 min | – | –
IgG1 Fc-region, symmetric, L234A/L235A/P329G + Y436A | – | 41.3 min | –
bispecific anti-VEGF/ANG2 antibody (knobs-into-holes), one chain with H435A (bispecific antibody) | – | – | 48.8 min
anti-HER2 antibody, symmetrically modified, E430H | 46.4 min | – | –
bispecific anti-VEGF/ANG2 antibody (knobs-into-holes), one chain with L251D/L314D/L432D (bispecific antibody) | – | – | 46.3 min
anti-HER2 antibody, symmetrically modified, K290H | 46.2 min | – | –
bispecific anti-VEGF/ANG2 antibody (knobs-into-holes), no FcRn affecting mutation (bispecific antibody) | – | – | 51.8 min
bispecific anti-VEGF/ANG2 antibody (knobs-into-holes), one chain with H310A (bispecific antibody) | – | – | 48.4 min
bispecific anti-VEGF/ANG2 antibody (knobs-into-holes), one chain with M252Y/S254T/T256E (bispecific antibody) | – | – | 56.2 min
bispecific anti-VEGF/ANG2 antibody (knobs-into-holes), one chain with H310A/H433A/Y436A (bispecific antibody) | – | – | 46.7 min
bispecific anti-VEGF/ANG2 antibody (knobs-into-holes), one chain with I253A (bispecific antibody) | – | – | 48.8 min

Results, then the substance that gave them:

retention time | FcRn-affinity column retention time | retention time on FcRn affinity column | Substance
46.3 min | – | – | anti-HER2 antibody, symmetrically modified, K317H
45.2 min | – | – | anti-HER2 antibody, symmetrically modified, K288E
46.3 min | – | – | anti-HER2 antibody, wild-type
46.3 min | – | – | anti-HER2 antibody, symmetrically modified, Q311H
46.2 min | – | – | anti-HER2 antibody, symmetrically modified, D98E
46 min | – | – | anti-HER2 antibody, symmetrically modified, T256H
45.5 min | – | – | anti-HER2 antibody, symmetrically modified, L309H
52 min | – | – | anti-HER2 antibody, symmetrically modified, N434H
45.6 min | – | – | anti-HER2 antibody, symmetrically modified, E258H
